The results in this text go back to paper PMC9270254.

In one assay the target is human IgG (human). The assay can be described thus: SPR. (In SPR one partner is held on a chip, and binding of the other changes the refractive index at the surface.)
Another assay concerns the target human IgM (human). Put plainly: SPR.

In the assay with human IgG (human), “single-chain mouse globular part of C1q (from UniProt P98086 110-245; Q02105 116-246; P14106 115-253) (domain or fragment)” gave a Kd1 (first phase, two-exponential fit) of 6.8 nM; a kd1 (first phase, two-exponential fit) of 0.032 s⁻¹; a kd2 (second phase, two-exponential fit) of 0.0021 s⁻¹. Further, in the assay with human IgM (human), the Kd1 (first phase, two-exponential fit) amounted to 8.5 nM; the kd1 (first phase, two-exponential fit) stood at 0.029 s⁻¹; the kd2 (second phase, two-exponential fit) was 0.0023 s⁻¹.
